Results on two substances are retold here after patent US20090035321A1, “Intercellular adhesion molecules and their binding ligands” (Boehringer Ingelheim Pharmaceuticals, Inc., published 2009).

The target in test [1] is ICAM-1 N269QSQI/IQAEQ (human) (UniProt P05362). Description: COS cells on LFA-1 coated plastic.
The target in test [2] is Intercellular Adhesion Molecule-1 (ICAM-1), wild type, on the cell surface (human) (UniProt P05362). As to the kind of experiment: COS cells on LFA-1 coated plastic.
The target of the next test is ICAM-1 N240DS/KNA (human, UniProt P05362). Description: COS cells on LFA-1 coated plastic.
A further test has as its target ICAM-1 E254DE/KEK (human, UniProt P05362). As to the kind of experiment: COS cells on LFA-1 coated plastic.
For test [3], the target named is T1, ICAM-1 R13G/EA (human, UniProt P05362). Description: COS cells on LFA-1 coated plastic.
For another test, the target named is ICAM-1 R13/K (human, UniProt P05362). As to the kind of experiment: COS cells on LFA-1 coated plastic.
Another test deals with ICAM-1 T20CS/ACT (human, UniProt P05362). As to the kind of experiment: COS cells on LFA-1 coated plastic.
Another test addresses ICAM-1 S24/A (human, UniProt P05362). As to the kind of experiment: COS cells on LFA-1 coated plastic.
A further test addresses ICAM-1 K40/A (human, UniProt P05362). As to the kind of experiment: COS cells on LFA-1 coated plastic.
In test [4] the target is T2, ICAM-1 Y52/F (human, UniProt P05362). Description: COS cells on LFA-1 coated plastic.
In another test the target is ICAM-1 Q73/T (human, UniProt P05362). As to the kind of experiment: COS cells on LFA-1 coated plastic.
The target in a further test is ICAM-1 K77T/ES (human, UniProt P05362). Description: COS cells on LFA-1 coated plastic.
In another test the target is ICAM-1 R88V/EA (human, UniProt P05362). As to the kind of experiment: COS cells on LFA-1 coated plastic.
The target of test [5] is T3, ICAM-1 E90/K (human, UniProt P05362). Description: COS cells on LFA-1 coated plastic.
For a further test, the target named is ICAM-1 N103/K (human, UniProt P05362). As to the kind of experiment: COS cells on LFA-1 coated plastic.
A further test concerns the target ICAM-1 V136GE/GVK (human, UniProt P05362). Description: COS cells on LFA-1 coated plastic.
The target in the next test is ICAM-1 R149RD/EEG (human, UniProt P05362). Description: COS cells on LFA-1 coated plastic.
In the next test the target is ICAM-1 H152HGA/EEGS (human, UniProt P05362). As to the kind of experiment: COS cells on LFA-1 coated plastic.
For a further test, the target named is ICAM-1 D213GL/HGV (human, UniProt P05362). As to the kind of experiment: COS cells on LFA-1 coated plastic.
The target of another test is ICAM-1 Y476/TAG (human) (UniProt P05362). As to the kind of experiment: COS cell adhesion to purified LFA-1, no antibody.
The target of test [6] is Intercellular Adhesion Molecule-1 (ICAM-1), wild type, on the cell surface (human) (UniProt P05362). Description: COS cell adhesion to purified LFA-1, no antibody.
Test [7] deals with ICAM-1 A115N/SV (printed A155N/SV at paragraph 410) (human) (UniProt P05362). Description: flow, COS cells.
The next test has as its target ICAM-1 Q1/E (human, UniProt P05362). Description: flow, COS cells.
The target in the next test is ICAM-1 S3VS/AGL (human, UniProt P05362). As to the kind of experiment: flow, COS cells.
In test [8] the target is T1, ICAM-1 R13G/EA. As to the kind of experiment: flow, COS cells.
The next test has as its target ICAM-1 R13/Q (human, UniProt P05362). As to the kind of experiment: flow, COS cells.
A further test addresses ICAM-1 G46NN/ASI (human, UniProt P05362). As to the kind of experiment: flow, COS cells.
Test [9] has as its target T2, ICAM-1 Y52/F. As to the kind of experiment: flow, COS cells.
A further test concerns the target ICAM-1 Q58EDS/AKDI (human, UniProt P05362). As to the kind of experiment: flow, COS cells.
A further test deals with ICAM-1 E59/K (human, UniProt P05362). As to the kind of experiment: flow, COS cells.
A further test deals with ICAM-1 D60S/KL (human, UniProt P05362). As to the kind of experiment: flow, COS cells.
Another test deals with ICAM-1 D60/N (human, UniProt P05362). As to the kind of experiment: flow, COS cells.
In a further test the target is ICAM-1 D60/Q (human, UniProt P05362). Description: flow, COS cells.
For a further test, the target named is ICAM-1 Y66/T (human, UniProt P05362). As to the kind of experiment: flow, COS cells.
For another test, the target named is ICAM-1 D71GQS/NGEL (human, UniProt P05362). As to the kind of experiment: flow, COS cells.
The next test addresses ICAM-1 D71/E (human, UniProt P05362). Description: flow, COS cells.
The next test has as its target ICAM-1 S74/A (human, UniProt P05362). As to the kind of experiment: flow, COS cells.
Another test concerns the target ICAM-1 Y83/S (human, UniProt P05362). Description: flow, COS cells.
The target of a further test is ICAM-1 E87/K (human, UniProt P05362). Description: flow, COS cells.
A further test has as its target ICAM-1 E90/Q (human, UniProt P05362). Description: flow, COS cells.
In test [10] the target is T3, ICAM-1 E90/K. Description: flow, COS cells.
The next test has as its target ICAM-1 E111GGA/KAGS (human, UniProt P05362). As to the kind of experiment: flow, COS cells.
The target in a further test is ICAM-1 R125/E (human, UniProt P05362). Description: flow, COS cells.
The target of a further test is ICAM-1 E127/R (human, UniProt P05362). As to the kind of experiment: flow, COS cells.
The next test deals with ICAM-1 K128/R (human, UniProt P05362). As to the kind of experiment: flow, COS cells.
For the next test, the target named is ICAM-1 N156/E (human, UniProt P05362). As to the kind of experiment: flow, COS cells.
For the next test, the target named is ICAM-1 D203TQ/TAD (human, UniProt P05362). Description: flow, COS cells.

In the case of “purified LFA-1, bound to plastic (from UniProt P20701) (receptor)”, the LFA-1 Binding % (% of wild type) in test [1] stood at 101; with ICAM-1 N240DS/KNA it was 147; in the test with ICAM-1 E254DE/KEK, 122; with ICAM-1 R13G/EA [3], 2; with ICAM-1 R13/K, 98; with ICAM-1 T20CS/ACT it was 91. Besides, the LFA-1 Binding % (% of wild type) with ICAM-1 S24/A was 80; in the test with ICAM-1 K40/A, 124; in the test with ICAM-1 Y52/F [4], 72; with ICAM-1 Q73/T, 40; with ICAM-1 K77T/ES, 87; with ICAM-1 R88V/EA, 95. Also, the LFA-1 Binding % (% of wild type) with ICAM-1 E90/K [5] is 34; with ICAM-1 N103/K it was 12; in the test with ICAM-1 V136GE/GVK, 92; with ICAM-1 R149RD/EEG it was 81; with ICAM-1 H152HGA/EEGS, 85; with ICAM-1 D213GL/HGV, 90. In addition, the % of COS cells bound (mean) in [2] worked out at 33%. Further, the % of Cells Expressing ICAM-1 that Bind LFA-1 (with ICAM-1 Y476/TAG (human); in test [6]) was 20% throughout.
Turning to monoclonal antibody CL203, the SLFI % WT in test [7] stood at 60 % WT; in the test with ICAM-1 Q1/E, 135 % WT; in the test with ICAM-1 S3VS/AGL, 121 % WT; with ICAM-1 R13G/EA [8], 132 % WT; with ICAM-1 R13/Q, 161 % WT; with ICAM-1 G46NN/ASI, 151 % WT. Moreover, the SLFI % WT in the test with ICAM-1 Y52/F [9] worked out at 152 % WT; with ICAM-1 Q58EDS/AKDI it was 98 % WT; with ICAM-1 E59/K, 130 % WT; in the test with ICAM-1 D60S/KL, 105 % WT; with ICAM-1 D60/N, 127 % WT; with ICAM-1 D60/Q it was 80 % WT. Besides, the SLFI % WT was 144 % WT with ICAM-1 Y66/T; 161 % WT with ICAM-1 D71GQS/NGEL; 124 % WT with ICAM-1 D71/E; 129 % WT with ICAM-1 S74/A; 125 % WT with ICAM-1 Y83/S; 94 % WT in the test with ICAM-1 E87/K. The SLFI % WT in the test with ICAM-1 E90/Q came to 152 % WT; with ICAM-1 E90/K [10] it was 29 % WT; with ICAM-1 E111GGA/KAGS, 122 % WT; with ICAM-1 R125/E, 145 % WT; in the test with ICAM-1 E127/R it was 191 % WT; in the test with ICAM-1 K128/R, 190 % WT. In addition, the SLFI % WT is 182 % WT in the test with ICAM-1 N156/E and 125 % WT with ICAM-1 D203TQ/TAD.
